Experimental data taken from patent publication US20040059519A1.
Several values for one entry are separate records, joined by “and”; a condition that tells them apart may be missing. Equal values may be shown once.

How the values were obtained:
[1] = target: Human chorionic gonadotropin (human) (UniProt P01215); assay: sandwich, MAB602 capture beads, flow cytometry; hCG 0 ng/mL
[2] = target: Human chorionic gonadotropin (human) (UniProt P01215); assay: sandwich, MAB602 capture beads, flow cytometry; hCG 200 ng/mL
[3] = target: Human chorionic gonadotropin (human) (UniProt P01215); assay: multiplex sandwich, MAB602 capture beads; hCG 8 ng/mL, washed
[4] = target: Human chorionic gonadotropin (human) (UniProt P01215); assay: multiplex sandwich, MAB602 capture beads; hCG 1 ng/mL, no wash
[5] = target: Human chorionic gonadotropin (human) (UniProt P01215); assay: multiplex sandwich, MAB602 capture beads; hCG 2 ng/mL, no wash
[6] = target: Human chorionic gonadotropin (human) (UniProt P01215); assay: bead sandwich, flow cytometry; capture A1 beads, hCG 20.0 ug/mL
[7] = target: Human chorionic gonadotropin (human) (UniProt P01215); assay: sandwich, MAB602 capture beads, flow cytometry; hCG 20000 ng/mL
[8] = target: Human chorionic gonadotropin (human) (UniProt P01215); assay: sandwich, MAB602 capture beads, flow cytometry; hCG 0.0002 ng/mL
[9] = target: Human chorionic gonadotropin (human) (UniProt P01215); assay: multiplex sandwich, MAB602 capture beads; hCG 1000 ng/mL, washed
Alpha fetoprotein [10] = target: Alpha fetoprotein (UniProt P02771); assay: MAB602 capture beads, flow cytometry; AFP 0.1 ng/mL, anti-hCG probe
Chain of UniProt P02771 (P02771 19-609 limits assumed): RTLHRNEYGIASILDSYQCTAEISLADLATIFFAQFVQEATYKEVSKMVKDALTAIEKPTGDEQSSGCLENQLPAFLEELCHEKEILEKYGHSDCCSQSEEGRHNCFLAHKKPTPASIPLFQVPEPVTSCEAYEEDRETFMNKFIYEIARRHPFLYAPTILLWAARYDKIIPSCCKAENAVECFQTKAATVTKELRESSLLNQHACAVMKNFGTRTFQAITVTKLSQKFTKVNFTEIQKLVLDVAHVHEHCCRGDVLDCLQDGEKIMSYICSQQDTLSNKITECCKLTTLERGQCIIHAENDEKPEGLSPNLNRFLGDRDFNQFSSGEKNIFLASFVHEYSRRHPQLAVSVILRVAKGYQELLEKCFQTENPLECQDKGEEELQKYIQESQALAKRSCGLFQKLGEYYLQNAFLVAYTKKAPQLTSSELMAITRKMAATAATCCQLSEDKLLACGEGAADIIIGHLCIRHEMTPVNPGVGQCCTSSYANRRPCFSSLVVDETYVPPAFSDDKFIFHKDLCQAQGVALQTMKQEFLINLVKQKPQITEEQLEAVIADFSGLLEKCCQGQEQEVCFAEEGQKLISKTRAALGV

[11] = target: Human chorionic gonadotropin (human) (UniProt P01215); assay: MAB602 capture beads, flow cytometry; hCG 1.0 ng/mL, anti-hCG probe
Alpha fetoprotein [12] = target: Alpha fetoprotein (UniProt P02771); assay: MAB602 capture beads, flow cytometry; AFP 100.0 ng/mL, anti-hCG probe
Alpha fetoprotein [13] = target: Alpha fetoprotein (UniProt P02771); assay: anti-AFP capture beads, flow cytometry; AFP 0.1 ng/mL, anti-hCG probe
Alpha fetoprotein [14] = target: Alpha fetoprotein (UniProt P02771); assay: anti-AFP capture beads, flow cytometry; AFP 10.0 ng/mL, anti-hCG probe
[15] = target: Human chorionic gonadotropin (human) (UniProt P01215); assay: multiplex no-wash sandwich, MAB602 beads; serum Level 3, hCG 436 mU/mL
[16] = target: Human chorionic gonadotropin (human) (UniProt P01215); assay: multiplex no-wash sandwich, MAB602 beads; serum Level 2, hCG 26.4 mU/mL
[17] = target: Human chorionic gonadotropin (human) (UniProt P01215); assay: bead sandwich, flow cytometry; capture A2 (MAB 602) beads, hCG 20.0 ug/mL
[18] = target: Human chorionic gonadotropin (human) (UniProt P01215); assay: multiplex no-wash sandwich, MAB602 beads; Unknown serum, hCG computed 218.55 mU/mL
Alpha fetoprotein [19] = target: Alpha fetoprotein (UniProt P02771); assay: multiplex sandwich, S10473 capture beads; AFP 0 ng/mL, washed
Alpha fetoprotein [20] = target: Alpha fetoprotein (UniProt P02771); assay: multiplex sandwich, S10473 capture beads; AFP 8 ng/mL, washed
Alpha fetoprotein [21] = target: Alpha fetoprotein (UniProt P02771); assay: multiplex sandwich, S10473 capture beads; AFP 1 ng/mL, no wash
Alpha fetoprotein [22] = target: Alpha fetoprotein (UniProt P02771); assay: multiplex sandwich, S10473 capture beads; AFP 62 ng/mL, no wash
Alpha fetoprotein [23] = target: Alpha fetoprotein (UniProt P02771); assay: multiplex sandwich, S10473 capture beads; AFP 1000 ng/mL, no wash
[24] = target: Human chorionic gonadotropin (human) (UniProt P01215); assay: MAB602 capture beads, flow cytometry; hCG 10.0 ng/mL, anti-AFP probe
[25] = target: Human chorionic gonadotropin (human) (UniProt P01215); assay: anti-AFP capture beads, flow cytometry; hCG 0.1 ng/mL, anti-AFP probe
[26] = target: Human chorionic gonadotropin (human) (UniProt P01215); assay: anti-AFP capture beads, flow cytometry; hCG 1.0 ng/mL, anti-AFP probe
Alpha fetoprotein [27] = target: Alpha fetoprotein (UniProt P02771); assay: multiplex no-wash sandwich, S10473 beads; serum Level 3, AFP 223 U/mL
[28] = target: Human chorionic gonadotropin (human) (UniProt P01215); assay: anti-AFP capture beads, flow cytometry; hCG 10.0 ng/mL, anti-AFP probe
[29] = target: Human chorionic gonadotropin (human) (UniProt P01215); assay: anti-AFP capture beads, flow cytometry; hCG 1000.0 ng/mL, anti-AFP probe
Alpha fetoprotein [30] = target: Alpha fetoprotein (UniProt P02771); assay: multiplex no-wash sandwich, S10473 beads; Unknown serum, AFP computed 39.59 U/mL
[31] = target: Neutravidin (deglycosylated avidin) (UniProt P02701); assay: multiplex, Neutravidin bead 70/50 without peptide, flow cytometry
Chain of UniProt P02701 (P02701 25-152 limits assumed): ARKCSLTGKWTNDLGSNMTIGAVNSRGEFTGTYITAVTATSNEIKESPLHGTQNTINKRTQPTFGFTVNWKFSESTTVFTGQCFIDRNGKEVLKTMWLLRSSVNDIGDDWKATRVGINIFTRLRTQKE

[32] = target: Neutravidin (deglycosylated avidin) (UniProt P02701); assay: multiplex, Neutravidin bead 70/70 without peptide, flow cytometry
Peptide 1 …-biotin = assay: single-analyte peptide bead, flow cytometry; MAB 384-Bodipy 15.5 ug/mL
Peptide 2 …-biotin = assay: as above
Peptide 3 …-biotin = assay: as above
Peptide 4 …-biotin = assay: as above
[33] = target: Neutravidin (deglycosylated avidin) (UniProt P02701); assay: single-analyte, Neutravidin bead 40/50 without peptide, flow cytometry
[34] = target: Neutravidin (deglycosylated avidin) (UniProt P02701); assay: single-analyte, Neutravidin bead 60/70 without peptide, flow cytometry
[35] = target: Neutravidin (deglycosylated avidin) (UniProt P02701); assay: single-analyte, Neutravidin bead 70/70 without peptide, flow cytometry

Chain of UniProt P01215 (P01215 25-116, chain 1 of 2, other chains not shown): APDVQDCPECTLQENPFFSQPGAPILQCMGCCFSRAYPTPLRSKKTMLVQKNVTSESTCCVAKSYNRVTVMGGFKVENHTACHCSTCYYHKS

Q: Which MIF of Fm [1] does the source give for “AB633 affinity purified polyclonal anti-hCG antibody, Bodipy FL-CASE labeled” here?
A: 128 and 111

Q: What about the MIF of Fm [2] of the same substance?
A: 9230 and 9400

Q: And the MIF of Fm [3]?
A: 1960

Q: And the MIF of Fm [4]?
A: 330

Q: And the MIF of Fm [5]?
A: 650

Q: And the MIF of Fm [6]?
A: 8790

Q: And the MIF of Fm [7]?
A: 9340 and 9220

Q: And the MIF of Fm [8]?
A: 122 and 149

Q: And the MIF of Fm [9]?
A: 3160

Q: What about the MIF of Fm (Alpha fetoprotein [10]) of the same substance?
A: 52

Q: What about the MIF of Fm [11] of the same substance?
A: 104

Q: And the MIF of Fm (Alpha fetoprotein [12])?
A: 47

Q: And the MIF of Fm (Alpha fetoprotein [13])?
A: 75

Q: What about the MIF of Fm (Alpha fetoprotein [14]) of the same substance?
A: 44

Q: What about the MIF AVG [15] of the same substance?
A: 624

Q: And the MIF of FL1 [15]?
A: 631 and 601 and 640

Q: And the MIF AVG [16]?
A: 31.7

Q: What about the MIF of FL1 [16] of the same substance?
A: 32 and 34 and 29

Q: What about the MIF of Fm [17] of the same substance?
A: 9440

Q: What about the MIF AVG [18] of the same substance?
A: 272

Q: And the MIF of FL1 [18]?
A: 270 and 264 and 283

Q: What does the source list for “M20077 affinity purified polyclonal anti-AFP antibody, Bodipy FL-CASE labeled”?
A: MIF of Fm (Alpha fetoprotein [19]): 13; MIF of Fm (Alpha fetoprotein [20]): 205; MIF of Fm (Alpha fetoprotein [21]): 33; MIF of Fm (Alpha fetoprotein [22]): 980; MIF of Fm (Alpha fetoprotein [23]): 379; MIF of Fm [24]: 47; MIF of Fm [25]: 49; MIF of Fm [26]: 44; MIF AVG (Alpha fetoprotein [27]): 1060; MIF of FL1 (Alpha fetoprotein [27]): 1110 and 994 and 1080; MIF of Fm [28]: 45; MIF of Fm [29]: 78; MIF AVG (Alpha fetoprotein [30]): 276; MIF of FL1 (Alpha fetoprotein [30]): 268 and 274 and 286

Q: MAB 384, Bodipy FL-X labeled (antibody) was tested. Which MIF of Fm [31] did it give?
A: 28

Q: And the MIF of Fm [32]?
A: 25

Q: What about the MIF of Fm (Peptide 1 …-biotin) of the same substance?
A: 72

Q: What about the MIF of Fm (Peptide 2 …-biotin) of the same substance?
A: 57

Q: What about the MIF of Fm (Peptide 3 …-biotin) of the same substance?
A: 47

Q: And the MIF of Fm (Peptide 4 …-biotin)?
A: 57

Q: What about the MIF of Fm [33] of the same substance?
A: 47

Q: What about the MIF of Fm [34] of the same substance?
A: 48

Q: What about the MIF of Fm [35] of the same substance?
A: 66
